B1: Phospholipase D alpha 1 (Arabidopsis thaliana (Mouse-ear cress)), Q38882 (parent)
chain: MAQHLLHGTLHATIYEVDALHGGGVRQGFLGKILANVEETIGVGKGETQLYATIDLQKARVGRTRKIKNEPKNPKWYESFHIYCAHLASDIIFTVKDDNPIGATLIGRAYIPVDQVINGEEVDQWVEILDNDRNPIQGGSKIHVKLQYFHVEEDRNWNMGIKSAKFPGVPYTFFSQRQGCKVSLYQDAHIPDNFVPRIPLAGGKNYEPQRCWEDIFDAISNAKHLIYITGWSVYAEIALVRDSRRPKPGGDVTIGELLKKKASEGVRVLLLVWDDRTSVDVLKKDGLMATHDEETENFFRGSDVHCILCPRNPDDGGSIVQSLQISTMFTHHQKIVVVDSEMPSRGGSEMRRIVSFVGGIDLCDGRYDTPFHSLFRTLDTVHHDDFHQPNFTGAAITKGGPREPWHDIHSRLEGPIAWDVMYNFEQRWSKQGGKDILVKLRDLSDIIITPSPVMFQEDHDVWNVQLFRSIDGGAAAGFPESPEAAAEAGLVSGKDNIIDRSIQDAYIHAIRRAKDFIYVENQYFLGSSFAWAADGITPEDINALHLIPKELSLKIVSKIEKGEKFRVYVVVPMWPEGLPESGSVQAILDWQRRTMEMMYKDVIQALRAQGLEEDPRNYLTFFCLGNREVKKDGEYEPAEKPDPDTDYMRAQEARRFMIYVHTKMMIVDDEYIIIGSANINQRSMDGARDSEIAMGGYQPHHLSHRQPARGQIHGFRMSLWYEHLGMLDETFLDPSSLECIEKVNRISDKYWDFYSSESLEHDLPGHLLRYPIGVASEGDITELPGFEFFPDTKARILGTKSDYLPPILTT
partner: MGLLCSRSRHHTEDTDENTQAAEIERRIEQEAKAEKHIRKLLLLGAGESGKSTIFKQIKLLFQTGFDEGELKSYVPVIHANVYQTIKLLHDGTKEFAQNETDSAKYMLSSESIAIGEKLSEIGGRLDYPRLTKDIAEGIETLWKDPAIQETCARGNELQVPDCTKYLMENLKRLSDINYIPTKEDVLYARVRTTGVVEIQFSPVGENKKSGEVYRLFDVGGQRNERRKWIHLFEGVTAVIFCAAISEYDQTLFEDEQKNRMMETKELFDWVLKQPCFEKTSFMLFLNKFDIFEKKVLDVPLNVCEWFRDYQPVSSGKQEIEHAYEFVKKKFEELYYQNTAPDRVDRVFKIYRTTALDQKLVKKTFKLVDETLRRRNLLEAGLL

Variants of: B1
Conditions: with gpa1_arath GPA1, P18064

effect of a mutation on the interaction | Variant
decreasing interaction | F565A
disrupting interaction | K564A
decreasing interaction | E563A

Variants of: B1
Conditions: with gpa1_arath GPA1, P18064
Remark: another data set of the same source

effect of a mutation on the interaction | Variant
decreasing interaction | K564A
